From patent US20250223358A1 (ANTENGENE BIOLOGICS, published 2025)
Positions count from the first letter of the chain named. Where two headings read alike, the source gives them in different places.

B1: ch40-C12-C10-E9 (antibody, V domains shown)
VH: EVQLQLSGPELVKPGASVKMSCKASGYTFSSYVIHWVKQKPGQGLEWIGYINPYNDVIKYNEKFKGKATLTSDKSSSTAYMELSSLTSEDSAVYYCARDSYYSYDGFAYWGQGTLVTVSA
VL: QIVLTQSPAIMSASPGEKVTMTCSASSSVSYMHWYQQKSGTSPKRWIYDTSKLASGVPARFSGSGSGTSYSLTISSMEAEDAATYYCQQWSSNPPTFGGGTKVEIK
B2: 124E3D6 (antibody, V domains shown)
VH: QVQLQQPGTELVKPGASVKLSCKASGYTFTSYWMHWVKQRPGQGLEWIGNINPSNGDTNYNEKFKSKATLTVDKSSSTAYMQLSSLTSEDSAVYYCARDRSSQYYFDYWGQGTTLTVSS
VL: DIVMSQSPSSLAVSAGEKVTMSCKSSQSLLNSRTRKNYLAWYQQKPGQSPKLLIYWASTRESGVPDRFTGSGSGTDFTLTISSVQAEDLAVYYCKQSYNLRTFGGGTKLEIK
notes: mouse monoclonal (hybridoma) antibody
B3: 126A11A4 (antibody, V domains shown)
VH: B2 VH with G42E, S75A, S77N, A97G
VL: B2 VL with Y93F, Y98F, N99I
notes: as for B2
B4: 127E2D3 (antibody, V domains shown)
VH: B2 VH with Q43E, N52Y, S54G, N55S, G56S, D57S, T58I
VL: B2 VL with K95T
notes: as for B2
B5: 133B4C7 (antibody, V domains shown)
VH: B2 VH with Y60F
VL: B2 VL with K24N, N99T
notes: as for B2
B6: 140D2B10 (antibody, V domains shown)
VH: B2 VH with D57E, T58S, S91Y
VL: B2 VL with N99T
notes: as for B2
B7: 147C6F3 (antibody, V domains shown)
VH: B2 VH with T30D, I51L, D57E, T58I, S66H, A97S
VL: B2 VL with M21L, P46S, I54M, S82T, S83N, N99I
notes: as for B2
B8: 147E11E2 (antibody, V domains shown)
VH: B2 VH with A16T, D57A
VL: B2 VL with T34S, K95T, N99T
notes: as for B2
B9: ch8-B12-F9-B11 (antibody, V domains shown)
VH: EVQLVESGGGIVKPGGSRKLSCAASGFTFSDYGMHWVRQAPEKGLEWIAYISSASGKIYYADTVKGRFTISRDNAKNILFLQMTSLRSEDTAMYYCARVLRWSVNYVMDYWGQGTSVTVSS
VL: DIVMTQSPSSLAVSAGEKVTMNCESSQSVLYSSNQKNYLAWYQQKPGQSPKLLIYWASTRESGVPDRFTGTGSGTDFTLTISSVQAEDLAVYYCHQYLSSWTFGGGTKLEIK
B10: 16-F2-C11-D9 (antibody, V domains shown)
VH: EVQLQQSGPELVKPGASVKMSCKASGYTFTDFNIHWVKQSLGKSLEWIGYINPNDGGSTYNQKFKGKATLTINKSSSSAYMELRSLTSEDSAVYYCAIPFLDSWGQGTSVTVSS
VL: TLMMTQSPSSMYASLGERVTITCKASQDINSYLRWYQQKPGKSPKTLIYGASSLVDGVPSRFSGRGSGQDYSLTISSLEYEDMGIYYCLQYDEVPLTFGAGTKLELK
notes: as for B2
B11: 20-E11-E11-C2 (antibody, V domains shown)
VH: EVQLQQSGPEVVKPGASVKISCKASGYTFTDYYMNWVKQSHGKNLEWIGDINPIHGGISSNQKFSDKATLTVDKSSNTAYLELRSLTSEDSAIYYCARRIYYGYDWYFDVWGTGTTVTVSS
VL: DIVLSQSPAIMSASPGERVTMTCSASSSVTSRYFFWYQQKPGSSPKLWIYSTSNLASGVPVRFSGSGSGTSYSLTINNMAAEDAATYYCQQYSTSPSTFGAGTKLELK
notes: as for B2
B12: 7-D9-G10-H2 (antibody, V domains shown)
VH: EVQLQQSGPELVKPGASVKISCKASGYSFTGYFMNWVKQSHGKSLEWIGRFNPYNGDTFYNQNFKGKATLTVDKSSSTAHMELRSLTSEDSAVYYCARGDYWGQGTTLTVSS
VL: not shown
notes: as for B2
B13: 7-D8-G12-E4 (antibody, V domains shown)
VH: EVKLVESGGGLVKPGGSLKLSCAASGFTFSSYPMSWVRQTPAKRLEWVATISSGGGNTYYPDSVKGRFTISRDNARNTLYLQMSSLRSEDTAMYYCARGLYWYFDVWGAGTTVTVSS
VL: DIVLTQSPLSLPVSLGDQASISCRSSQSIAHSNGDTYLEWYLQNPGQSPKLLIYKVSNRISGVPDRFSGSGSGTDFTLKISRVEAEDLGVYYCFQGSHVPYTFGGGTKLEIK
notes: as for B2
B14: 40-C12-C10-E9 (antibody, V domains shown)
VH: B1 VH
VL: B1 VL
notes: as for B2
B15: 2-F12-A6-G2 (antibody, V domains shown)
VH: EVQLVESRPGLVAPSQSLSITCTVSGFSLTSYGVSWVRQPPGKGLEWLGVIWGDGNTNYNSDLKTSLSISKDNSKSQVFLKLDSLQTDDTATYYCAKVSYWYFDVWGTGTTVTVSS
VL: DIQLTQPPASLSASVGETVTITCRASENIYSYLAWYQQKQGKSPQLLVYNAKTLPEGVPSRFSGSGSGTQFSLKINSLQPEDFGTYYCQHHYGTPPTFGTGTKLELK
notes: as for B2
B16: 3-C6-C11-F12 (antibody, V domains shown)
VH: EVHLVESGGGLVQPGGSRKLSCAGSGFTFSTYGMHWVRQAPEKGLEWVAYISNGGSTIYYADSVKGRFTISRDNPNDTLFLHMTSLGSEDTAMYYCARPTWGGFAYWGQGTLVTVSA
VL: B13 VL
notes: as for B2

Columns and labels:
human CD3 [1] = molecular target: T1, human CD3 (human, UniProt P07766 23-207; P04234 22-171; P09693 23-182); assay: FACS on Jurkat cells; as to FACS MFI: test concentration or dose not given here
T1 construct: whole, on cells; also called hCD3; CD3 on Jurkat cells

human CD3 [2] = molecular target: T1, human CD3; assay: FACS on Jurkat cells; remark: listed apart in the source; as to FACS MFI: test concentration or dose not given here
human CD3 [3] = molecular target: T1, human CD3; assay: FACS on Jurkat cells; remark: listed apart in the source; as to FACS MFI: test concentration or dose not given here
human CD3 [4] = molecular target: T1, human CD3; assay: cell-based or functional assay
human CD3 [5] = molecular target: T1, human CD3; assay: cell-based or functional assay; remark: listed apart in the source
human CD3 [6] = molecular target: T1, human CD3; assay: cell-based or functional assay; remark: listed apart in the source
human CD3 [7] = molecular target: T1, human CD3; assay: FACS on Jurkat cells; remark: listed apart in the source; as to FACS MFI: test concentration or dose not given here
cynomolgus CD3 = molecular target: T2, cynomolgus CD3 (cynomolgus (Macaca fascicularis), UniProt Q95LI5 22-198; Q95LI8 22-171; Q95LI7 23-181); assay: FACS on 293F-cynoCD3mix cells; also: test concentration or dose not given here
T2 construct: whole, on cells; composition of the 'mix' not defined; also called cynoCD3

human CD3 [8] = molecular target: T1, human CD3; assay: FACS on HEK293T-hCD3mix cells; also: test concentration or dose not given here

T1 sequence (P07766 23-207, chain 1 of 3): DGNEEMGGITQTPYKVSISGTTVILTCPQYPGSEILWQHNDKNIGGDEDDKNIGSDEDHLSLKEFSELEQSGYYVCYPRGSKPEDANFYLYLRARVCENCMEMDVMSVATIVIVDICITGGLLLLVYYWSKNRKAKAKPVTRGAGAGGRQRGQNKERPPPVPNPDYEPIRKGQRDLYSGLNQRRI
T1 sequence (P04234 22-171, chain 2 of 3): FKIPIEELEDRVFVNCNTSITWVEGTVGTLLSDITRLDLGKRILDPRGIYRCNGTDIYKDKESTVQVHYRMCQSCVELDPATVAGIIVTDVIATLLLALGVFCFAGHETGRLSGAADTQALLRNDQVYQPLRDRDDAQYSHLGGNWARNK
T1 sequence (P09693 23-182, chain 3 of 3): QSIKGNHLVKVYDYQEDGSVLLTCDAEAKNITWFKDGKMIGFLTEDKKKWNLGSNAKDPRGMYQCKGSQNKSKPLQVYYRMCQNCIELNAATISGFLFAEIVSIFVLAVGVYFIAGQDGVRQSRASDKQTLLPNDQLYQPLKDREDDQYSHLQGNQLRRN
T2 sequence (Q95LI5 22-198, chain 1 of 3): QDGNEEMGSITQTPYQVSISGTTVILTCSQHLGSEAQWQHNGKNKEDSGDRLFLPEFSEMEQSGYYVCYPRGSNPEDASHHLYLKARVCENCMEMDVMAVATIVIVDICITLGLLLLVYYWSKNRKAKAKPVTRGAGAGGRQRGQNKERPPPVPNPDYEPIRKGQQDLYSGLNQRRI
T2 sequence (Q95LI8 22-171, chain 2 of 3): as the sequence (P04234 22-171, chain 2 of 3) above, with I5V, N15K, I20V, S32T, D33N, I34N, T64A, S74N, V83L, H141R counted along it
T2 sequence (Q95LI7 23-181, chain 3 of 3): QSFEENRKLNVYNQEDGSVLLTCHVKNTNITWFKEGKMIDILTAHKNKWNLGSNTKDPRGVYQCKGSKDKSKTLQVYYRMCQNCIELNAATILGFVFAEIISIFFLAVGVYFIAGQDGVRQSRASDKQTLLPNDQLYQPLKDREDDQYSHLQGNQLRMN

FACS MFI (human CD3 [7]) | FACS MFI (cynomolgus CD3) | FACS MFI (human CD3 [8]) | further results | Binder
 |  |  | EC50 (human CD3 [1]): 1.01 nM; Top FACS signal (human CD3 [1]): 2540; EC50 (human CD3 [2]): 0.45 nM; Top FACS signal (human CD3 [2]): 1620; EC50 (human CD3 [3]): 0.41 nM; Top FACS signal (human CD3 [3]): 2940; EC50 (activation of Jurkat-NFAT-Luc cells) (human CD3 [4]): 24.2 nM; Top FACS signal (activation of Jurkat-NFAT-Luc cells) (human CD3 [4]): 810; EC50_Fold change (Jurkat-NFAT-luciferase activation, normalized to ch40-C12-C10-E9) (human CD3 [5]): 1 fold; Top FACS signal_Fold change (Jurkat-NFAT-luciferase activation, normalized to ch40-C12-C10-E9) (human CD3 [5]): 1 fold; EC50_Fold change (Jurkat-NFAT-luciferase activation, normalized to ch40-C12-C10-E9) (human CD3 [6]): 1 fold; Top signal_Fold change (Jurkat-NFAT-luciferase activation, normalized to ch40-C12-C10-E9) (human CD3 [6]): 1 fold | B1
126 MFI | 400 MFI |  |  | B2
1620 MFI | 2220 MFI |  |  | B3
930 MFI | 1920 MFI |  |  | B4
681 MFI | 1780 MFI |  |  | B5
872 MFI | 2040 MFI |  |  | B6
1860 MFI | 2230 MFI |  |  | B7
2450 MFI | 2530 MFI |  |  | B8
 |  |  | EC50 (human CD3 [1]): 18 nM; Top FACS signal (human CD3 [1]): 2720; EC50 (activation of Jurkat-NFAT-Luc cells) (human CD3 [4]): 11.3 nM; Top FACS signal (activation of Jurkat-NFAT-Luc cells) (human CD3 [4]): 457 | B9
 |  | 80300 MFI |  | B10
 |  | 55200 MFI |  | B11
 |  | 51000 MFI |  | B12
 |  | 65200 MFI |  | B13
 |  | 13100 MFI |  | B14
 |  | 53800 MFI |  | B15
 |  | 21800 MFI |  | B16
